Experimental data taken from paper PMC11655906, “Required minimal protein domain of flower for synaptobrevin2 endocytosis in cytotoxic T cells” (Cellular and Molecular Life Sciences: CMLS, 2024).
Several values for one entry are separate records, joined by “and”; a condition that tells them apart may be missing. Equal entries are not always repeated.

B1: Drosophila Flower isoform Ubi with C-terminal mTFP (dUbi-mTFP) (natural protein, UniProt Q95T12-1 1-194, looked up)
chain: MSFAEKITGLLARPNQQDPIGPEQPWYLKYGSRLLGIVAAFFAILFGLWNVFSIITLSVSCLVAGILQMVAGFVVMLLEAPCCFVCFGQVNEIAEKVESKPLYFRAGLYIAMAIPPIILCFGLASLFGSGLIFGTGVVYGMMALGKKASAEDMRAAAQQTFGGNTPAQTNDRAGIVNNAQPFSFTGAVGTDSNV
notes: Drosophila Flower (Fwe), ubiquitous splice isoform dUbi; the three Drosophila isoforms are identical in aa 1-146 and differ in the C-terminus; also called dFwe-Ubi-mTFP; Drosophila Ubi isoform; source: Fwe KO mouse CTLs, transfected with pMAX plasmid, in lysate
B2: human Flower isoform 4 with C-terminal mTFP (hFwe4-mTFP) (natural protein, UniProt Q9UGQ2-1 1-172, looked up)
chain: MSSSGGAPGASASSAPPAQEEGMTWWYRWLCRLSGVLGAVSCAISGLFNCITIHPLNIAAGVWMIMNAFILLLCEAPFCCQFIEFANTVAEKVDRLRSWQKAVFYCGMAVVPIVISLTLTTLLGNAIAFATGVLYGLSALGKKGDAISYARIQQQRQQADEEKLAETLEGEL
notes: human Flower (CACFD1) isoform hFwe4, contains exon 3 and both the YRWL and YARI motifs; 93% identical to mFwe2; also called human isoform Fwe4; source: Fwe KO mouse CTLs, transfected with pMAX plasmid, in lysate
B3: mouse Flower isoform 3 with C-terminal mTFP (mFwe3-mTFP) (natural protein, UniProt Q8BG21-2 1-128, looked up)
chain: MSGSGAAGAAAGPAPPAQEEGMTWWYRWLCRLAGVLGAVSCAISGLFNCVTIHPLNIAAGVWMIMNAFILLLCEAPFCCQFVEFANTVAEKVDRLRSWQKAVFYCGHGEALRGAWPDVRLPNRNTISL
notes: source: Fwe KO mouse CTLs, transfected with pMAX plasmid, in lysate
B4: mouse Flower isoform 2, full-length form, with C-terminal mTFP (mFwe2-mTFP) (natural protein, UniProt Q8BG21-1 1-171, looked up)
chain: MSGSGAAGAAAGPAPPAQEEGMTWWYRWLCRLAGVLGAVSCAISGLFNCVTIHPLNIAAGVWMIMNAFILLLCEAPFCCQFVEFANTVAEKVDRLRSWQKAVFYCGMAIVPIVMSLTLTTLLGNAIAFATGVLYGLSALGKKGDAISYARIQQQRQQADEEKLAETFEGEL
notes: mouse Flower (Fwe); also called Mouse Flower 2; source: Fwe KO mouse CTLs, transfected with pMAX plasmid, in lysate
B5: mouse Flower isoform 1 with C-terminal mTFP (mFwe1-mTFP) (natural protein, UniProt Q8BG21-3 1-106, looked up)
chain: MSGSGAAGAAAGPAPPAQEEGMTWWYRWLCRLAGVLGAVSCAISGLFNCVTIHPLNIAAGVWMIMNAFILLLCEAPFCCQFVEFANTVAEKVDRLRSWQKAVFYCG
notes: Whole isoform cDNA synthesised (BioCAT) and subcloned into pMAX-mTFP; also called Mouse Fwe1; source: Fwe KO mouse CTLs, transfected with pMAX plasmid, in lysate

Target: the molecule itself
Assay: native gel or EMSA; native PAGE (4-16% Bis-Tris, G-250 additive) of lysates of transfected Fwe KO mouse CTLs (modified RIPA: 50 mM Tris pH 7.5, 50 mM NaCl, 1% Triton-X-100, 1 mM EDTA), western blot with anti-DsRed recognising mTFP; oligomeric state read from band size

Row | Protein | stoichiometry N
1 | B1 | 2 and 4
2 | B2 | 2 and 4
3 | B3 | 2 and 4 and 6
4 | B4 | 4 and 2
5 | B5 | 4 and 6 and 2
